± gives the standard deviation.

This series can be described thus: protein stability index of a GFP-peptide fusion (GPS, HEK-293T) (PSI 1-6); higher = more stable.
[1] abbreviates: treatment: DMSO, c terminus: a fixed tail appended.
[2] abbreviates: treatment: MLN4924 1 uM, 8 h, c terminus: a fixed tail appended.
The mark [3] stands for this setting: treatment: DMSO, c terminus: native.
The mark [4] stands for this setting: treatment: MLN4924 1 uM, 8 h, c terminus: native.
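Note: 24-mer peptide tiles fused after GFP, lentivirally expressed, FACS-sorted into six equal bins by GFP/DsRed ratio, decoded by Illumina sequencing, PSI is the read-weighted mean bin number.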

AAAVLFRMSEDKPQDYKKRLSVEL [CTNNB1]: the protein stability index under setting [1] came to 2.62 ± 0.31 and the protein stability index under setting [2] turned out to be 2.25 ± 0.27. On the same counts, the results for AAAYSPSEALLYALVHDHQAYAHY [ANKRD9] are 2.05 ± 0.14 and 2.27 ± 0.28. For AALSERGQAEEELIKAKSQARLEE [LRRC45], in that order: 5.28 ± 0.55 and 5.39 ± 0.46. For AAPDCTPSLEAGNPAPAAPCPLGE [MYCL], in that order: 5.42 ± 0.25 and 5.49 ± 0.26. As for AAWIGGFLHSLVQFLFIYQLPFCG [OR4A15], the protein stability index was 3.92 ± 0.8 under setting [1] and 3.21 ± 0.6 under setting [2].

As to ACGDAFTVAIGAESEVYSWGKGAR [NEK8], the protein stability index is, setting by setting: under setting [1], 2.84 ± 0.23; under setting [2], 2.77 ± 0.3. Regarding ACGVILYILLVGYPPFWDEDQHRL [CAMK2D], the protein stability index is 2.6 ± 0.9 under setting [1] and 2.63 ± 0.51 under setting [2]. For ACYAGAAPAPSQVKSKAKKTVDKH [CEBPB], the protein stability index by setting is: under setting [1], 4.95 ± 0.33; under setting [2], 5.09 ± 0.39. On the same counts, the results for ADDPDDGPVPGTPGLPGSTGNPKS [SPNS1] are 5.47 ± 0.39 and 5.49 ± 0.35. Regarding ADGSLRMDDPKGDFITLYQMASQS [M1AP], the protein stability index under setting [1] was found to be 3.58 ± 0.083 and the protein stability index under setting [2] stood at 3.53 ± 0.15. ADIFRIYAPEAPYTSPDKLKDIFM [PDS5B] yielded a protein stability index under setting [1] of 2.06 ± 0.11 and a protein stability index under setting [2] of 2.1 ± 0.21.

In the case of ADISQMLVCTADGDIHLSPEEPAA [TAF7L], the protein stability index stood at 4.93 ± 0.17 under setting [1] and 4.94 ± 0.077 under setting [2]. Consider AEEETLSRELEPELRRRRYEYDHW [ALKBH7], for which the protein stability index is 4.35 ± 0.29 under setting [1] and 4.59 ± 0.22 under setting [2].

As to AEFQSLFSLLEELKEGMLMKIKQD [FSD1], the protein stability index is, setting by setting: under setting [1], 2.21 ± 0.36; under setting [2], 2.33 ± 0.2. For AEGALEEVPLEVLRQRESKWLDML [TBC1D10A], the protein stability index runs as follows: under setting [1], 4.09 ± 0.88; under setting [2], 3.91 ± 0.47.

In the case of AEKSGEATDGARPQALPEPMQESK [CHGA], the protein stability index by setting is: under setting [1], 5.47 ± 0.3; under setting [2], 5.48 ± 0.22. For the sequence AERYGLSGSDVLDNVAYARAFNTD [RAD51], the protein stability index under setting [1] was 3.99 ± 0.2 and the protein stability index under setting [2] was 4.07 ± 0.32. AFYDVTGGMSHLHTFRATFQEPLY [TRIM14]: the protein stability index came out at 2.31 ± 0.25 under setting [1] and 2.41 ± 0.5 under setting [2]. As for AGEFTGWEKVGSGGFGQVYKVRHV [RIPK4], the protein stability index was 2.46 ± 0.61 under setting [1] and 2.25 ± 0.29 under setting [2]. For AGEVVCEAIKNEMNVMLKSSPVDL [IMPA1], in that order: 3.67 ± 0.91 and 4.11 ± 0.25. On the same counts, the results for AGIVRVFSGTPPPPVLSFRLVHTT [FCHO1] are 1.99 ± 0.07 and 2.13 ± 0.57. The sequence AGPGGGAERRRAGRLLLTLPLLRQ [ESRRA] gave a protein stability index under setting [1] of 2.53 ± 0.29 and a protein stability index under setting [2] of 2.84 ± 0.21. On to AGQEGEDTLRRRLLAPEAGSHPQQ [TOR1AIP2], for which the protein stability index is, setting by setting: under setting [1], 3.22 ± 0.89; under setting [2], 3.8 ± 0.52.

As to AGTAGHPPSGSQPLTSTQGLEHAA [FBF1], the protein stability index under setting [1] turned out to be 4.84 ± 0.11 and the protein stability index under setting [2] was found to be 4.89 ± 0.35. As for AHAGAVHNGKIYISGGVHNGEYVP [KLHL14], the protein stability index under setting [1] was found to be 3.03 ± 0.28 and the protein stability index under setting [2] turned out to be 2.82 ± 0.41. Regarding AIHSSDEGEDQAGDEDEDDEWDD [WAS], the protein stability index under setting [3] was 5.06 ± 0.3 and the protein stability index under setting [4] stood at 5.25 ± 0.29. In the case of AILSLDQIKAIRGSNEYTEGPSVV [SPRY1], the protein stability index reads like this: under setting [1], 3 ± 0.072; under setting [2], 2.98 ± 0.3.

AIQDQLPRLQQLLKTLEEGLEGLE [FANCE]: the protein stability index runs as follows: under setting [1], 3.61 ± 0.32; under setting [2], 3.68 ± 0.23. Take AKKKRLTKADIGTPSNFQHIGHVG [WASL]: the protein stability index was 3.52 ± 0.3 under setting [1] and 3.67 ± 0.18 under setting [2]. Turning to AKVGPGLPDGCQPLQLLREMRQAL [CBY2], the protein stability index runs as follows: under setting [1], 2.73 ± 0.57; under setting [2], 2.82 ± 0.33. Regarding ALHIIVQYNRPISDFLTLHSIIIS [FEM1B], the protein stability index by setting is: under setting [1], 3.03 ± 1; under setting [2], 2.37 ± 0.56.

On to ALLWLSCSIALLRALATSNARAQQ [GNAS], for which the protein stability index is 3.21 ± 0.51 under setting [1] and 2.99 ± 0.25 under setting [2]. Sequence ALSEQKAQDLGELLATAEQEQLSL [LRRC45] came in with a protein stability index under setting [1] of 5.07 ± 0.36 and a protein stability index under setting [2] of 5.27 ± 0.1. With ALVRWWNGIGAVLDFTHPKARDWF [MYORG], the protein stability index under setting [1] was 2.59 ± 0.52 and the protein stability index under setting [2] was found to be 2.3 ± 0.51. For APDFVGDILWEHLEQMIKENQEKT [ETS2], in that order: 4.44 ± 0.13 and 4.58 ± 0.14. APNRFFQKLNVFKNFIGLLQNQNF [NLN] had a protein stability index under setting [2] of 2.24 ± 0.82. In turn, APPLPDSPQPLASSPGPWGLEALA [FCHO1] displayed a protein stability index under setting [1] of 4.43 ± 0.16 and a protein stability index under setting [2] of 3.99 ± 0.18. For the sequence APSPSPVTPAQNNLLQPNFEAAFG [SNAP91], the protein stability index by setting is: under setting [1], 4.43 ± 0.089; under setting [2], 4.54 ± 0.38. In turn, APVSRGRDSYGGPPRREPLPSRRD [RBMX] had a protein stability index under setting [1] of 5.12 ± 0.21 and a protein stability index under setting [2] of 4.93 ± 0.22. The sequence APYFERSSSKRYTMSRSLDGASVN [EPB41L3] displayed a protein stability index under setting [1] of 3.3 ± 0.33 and a protein stability index under setting [2] of 3.44 ± 0.7. Sequence AQAHRIHIDPEIQDGSPTTSRRPS [PDLIM4] returned a protein stability index under setting [1] of 5.31 ± 0.43 and a protein stability index under setting [2] of 5.34 ± 0.22. For AQDPDVGTNTVSFYTLSPNSHFSL [PCDHGC5], in that order: 2.57 ± 0.26 and 2.61 ± 0.3. In the case of AQRQACMYASSAPPSEPVPSLEDI [TBX5], the protein stability index under setting [1] stood at 4.92 ± 0.14 and the protein stability index under setting [2] is 4.96 ± 0.077. On to ARGAGPPEPLRICPLHISVKEELD [TRIM35], for which the protein stability index was 4.59 ± 0.19 under setting [1] and 4.86 ± 0.4 under setting [2]. On to ARGGAVSARYVLPDEAARARLLQE [DUSP5], for which the protein stability index is, setting by setting: under setting [1], 4.63 ± 0.16; under setting [2], 4.54 ± 0.34.

On to ARRRVCHTEDFQKEEGTVNGASWH [CPXM2], for which the protein stability index is 4.57 ± 0.16 under setting [1] and 4.71 ± 0.84 under setting [2]. For ARVKAFNKTGVSPYSKTLVLQTSE [TRIM9], the protein stability index turned out to be 3.2 ± 0.28 under setting [1] and 3.34 ± 0.21 under setting [2]. In the case of ASDMFRRLRDAGFRVTLWVHPFVN [MYORG], the protein stability index reads like this: under setting [1], 2.23 ± 0.17; under setting [2], 2.13 ± 0.053.

ASKCKGAAVKLADFGLAIEVQGDQ [CAMK2B] displayed a protein stability index under setting [1] of 3.5 ± 0.28 and a protein stability index under setting [2] of 3.6 ± 0.37. The sequence ASKWGMSYDELCFLEQRPQSPTLE [EDARADD] displayed a protein stability index under setting [1] of 3.67 ± 0.12 and a protein stability index under setting [2] of 3.81 ± 0.062. ASLENSLEETKGRYCMQLSQIQGL [KRT16] had a protein stability index under setting [1] of 3.3 ± 0.39 and a protein stability index under setting [2] of 3.17 ± 0.25. As for ASLNGYRLGERVLQVSFKTSKQHK [ELAVL3], the protein stability index was 3.45 ± 0.13 under setting [1] and 3.52 ± 0.32 under setting [2]. For ASRVKLQHLPAQEQWDRLLVLYPT [PLEKHN1], in that order: 2.21 ± 0.14 and 2.41 ± 0.35. For ASSGGAGAAVGTGSSYPTTTISYL [JUNB], in that order: 2.8 ± 0.34 and 2.79 ± 0.39. For the sequence ASVPKVETVKSDNKDDDIDIDAI [EIF5], the protein stability index was found to be 5.59 ± 0.17 under setting [3] and 5.53 ± 0.22 under setting [4]. For the sequence ATKFKQLYRSRMNSLEMTPAVRQR [HMOX1], the protein stability index reads like this: under setting [1], 3.32 ± 0.21; under setting [2], 3.56 ± 0.27. In the case of ATRGVPAKRLLDADDAAAVAAKCP [TRIB1], the protein stability index under setting [1] amounted to 4.39 ± 1.5. In the case of AVKDGLIVETLTVGCKGSKAGIEQ [ZMYND11], the protein stability index under setting [1] was 3.57 ± 0.14 and the protein stability index under setting [2] is 3.48 ± 0.22.

AVPVSTSKPSSDLLDLQPDFSSGG [SNAP91]: the protein stability index is, setting by setting: under setting [1], 4.76 ± 0.17; under setting [2], 4.84 ± 0.14. Consider AWEKLLAAFPNLANLSRTQLLHLG [KLHDC10], for which the protein stability index under setting [1] was 2.06 ± 0.27 and the protein stability index under setting [2] was determined as 2.1 ± 0.11.

For the sequence AWETKKILAVSFAPLIQPCHSESG [PCMTD2], the protein stability index under setting [1] stood at 2.35 ± 0.2 and the protein stability index under setting [2] came to 2.54 ± 0.35. With AWIWHDCHRHYHSMEVFTHYDLLN [LOXL2], the protein stability index is, setting by setting: under setting [1], 2.41 ± 0.14; under setting [2], 3 ± 1.2. On the same counts, the results for AYNHRTDLFKSFPGPMDWVPRYTG [ADAMTS4] are 2.89 ± 0.14 and 2.82 ± 0.11.

With CCQWLKPKMRSKEQILELLVLEQF [ZNF449], the protein stability index came to 2.46 ± 0.51 under setting [1] and 2.46 ± 0.52 under setting [2].

For the sequence CDPSRIYKPQTRLKRKQPVRKRQ [DFFB], the protein stability index is, setting by setting: under setting [3], 3.96 ± 0.36; under setting [4], 4.15 ± 0.13. Consider CEITKRRRKACQACRFTKCLRVGM [ESRRA], for which the protein stability index reads like this: under setting [1], 2.26 ± 0.17; under setting [2], 2.32 ± 0.22. For the sequence CGNIKAPSLQAWNDAPCDKTFLFI [CD207], the protein stability index by setting is: under setting [1], 2.72 ± 0.41; under setting [2], 2.49 ± 0.55. As for CHHLPVIRQLATSGRFIVIIPRTV [SMG5], the protein stability index under setting [1] turned out to be 2.52 ± 0.6 and the protein stability index under setting [2] came to 2.56 ± 0.33. CISKNEWIQFNHPYTEKPRLWHTA [KLHDC2] displayed a protein stability index under setting [1] of 2.43 ± 0.48 and a protein stability index under setting [2] of 2.36 ± 0.3.

In the case of CKLTCQAQALGYYYVLEPRVVDGT [ADAMTS4], the protein stability index is 2.86 ± 2 under setting [1] and 2.77 ± 1.1 under setting [2]. In the case of CLSTWLLHFIATNYLIFSQKPEFQ [RHOBTB3], the protein stability index reads like this: under setting [1], 3.09 ± 0.19; under setting [2], 3.22 ± 0.2.

As for CMFCLYSFMPLVIKVTSATSVNLG [SLC35F2], the protein stability index reads like this: under setting [1], 2.91 ± 0.72; under setting [2], 2.73 ± 0.41.

In the case of CMGAMSLFLPCLLCYPPAKGCLKL [SPRY1], the protein stability index by setting is: under setting [1], 2.8 ± 0.56; under setting [2], 3.04 ± 0.83.

The values are drawn from the supplement of paper PMC10567573.
